From the supplement of paper PMC10201428
± gives the standard deviation of the averaged measurements.

The sequences below were run on VchCAST RNA-guided transposition machinery (E. coli BL21(DE3) host, lacZ target) (assay: relative integration efficiency (T-LR orientation) vs wild-type transposon end (log2 (normalized fold change)); transposon end mutated: right end (5 bp flank + 75 bp right end); higher = more efficient transposition).
In short: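 Co-transformation of E. coli BL21(DE3) combined a pUC57 mini-transposon donor, holding barcoded pools of 1549 left-end or 1849 right-end variants, with a T7-driven plasmid encoding a CRISPR array, tniQ-cas8-cas7-cas6 and tnsA-tnsB-tnsC. After plating with 0.1 mM IPTG at 37°C for 18 h, input plasmids and genomic integration junctions were PCR-amplified and Illumina-sequenced across two biological output replicates, with four reference barcodes. Relative integration efficiency is the normalised, log-transformed output/input barcode fold change.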

Sequence | relative integration efficiency (log2)
ACATTTGTTGATACAACCATATTATGATAATTACACCCATATTTTGATAATTATCACACCCATATTTTGATATTGCCTCTGATCATAGTCAGACCAACATTGCTACGACCCGTATTCGCACCGACAC | -0.471 ± 0.23
ACATTTCTTGATACAACCATAAAATGATAATTACACCCATAAATTGATCATTATCACACCCAATTTAACTATAACGCTCTGATCATAGTCAGACCAACATTGCTACGACCCGTATTCGCACCGACAC | 1.34 ± 0.11
ACATTAGTCGATACAACCATAAAATGATAATTACACCCATAAATTGATCATTATCACACCCAATTTAACTATAACGCTCTGATCATAGTCAGACCAACATTGCTACGACCCGTATTCGCACCGACAC | -3.34 ± 1
ACATTTGTTGATACAACCATTAAATGATAATTCCACCCTTAAATTGATAATTATCACACCCAATTTAACTATAACGCTCTGATCATAGTCAGACCAACATTGCTACGACCCGTATTCGCACCGACAC | 0.973 ± 0.22
ACATTTGTTGATACAACCATAAAATGATAATTACACCCATAAATTGATAATTATCACACCCATAAATTGATATTGAAGATGATCATAGTCAGACCAACATTGCTACGACCCGTATTCGCACCGACAC | 0.0825 ± 0.095
ACATTTGTTGATACAACCATCAAATGGTAATTACACCCATAAATTGATAATTATCACACCCAATTTAACTATAACGCTCTGATCATAGTCAGACCAACATTGCTACGACCCGTATTCGCACCGACAC | 2.24 ± 0.09
ACATTGGTTGATACAACCATAAAATGATAATTACACCCATAAATTCATCATTATCACACCCAATTTAACTATAACGCTCTGATCATAGTCAGACCAACATTGCTACGACCCGTATTCGCACCGACAC | -5.884 ± 0.042
ACATTTGTTGATACAACCATAAAATGATAATTACACCCATCAATTGATAATTATCACACCCCATTTAACTATAACGCTCTGATCATAGTCAGACCAACATTGCTACGACCCGTATTCGCACCGACAC | 1.6 ± 0.24
ACATTTGTTGATACAACCCTAAAATGATAATTACACCCATAAATTGATCATTATCACCCCCAATTTAACTATAACGCTCTGATCATAGTCAGACCAACATTGCTACGACCCGTATTCGCACCGACAC | 0.404 ± 0.19
ACATTTGTTGATACAACCATAAAATCATAATTACACCCATCAATTGATAATTATCACACCCCATTTAACTATAACGCTCTGATCATAGTCAGACCAACATTGCTACGACCCGTATTCGCACCGACAC | -0.773 ± 0.047
ACATTTGTTGATACAACCATAAAATCATCATTACCCCCATCAATTGATAATTATCCCACCCCATTTAACTATAACGCTCTGATCATAGTCAGACCAACATTGCTACGACCCGTATTCGCACCGACAC | -1.6 ± 0.036
ACATTTGTTGATACAACCATAAAATGATAATTCACACCATAAATTGATAATTATCACACCCATAAATTGATATTGCCTCTGATCATAGTCAGACCAACATTGCTACGACCCGTATTCGCACCGACAC | -0.473 ± 0.22
ACATTTGTTGATACAACCATAAAATGATAATTACAACCATAAAGTGATATTTATCACACCCATAAATTGATAATTACTCTGATCATAGTCAGACCAACATTGCTACGACCCGTATTCGCACCGACAC | -0.0135 ± 0.3
ACATTTCTTCATACAACCATAAAATGATAATTACACCCATAAATTCATCATTATCACACCCAATTTAACTATAACGCTCTGATCATAGTCAGACCAACATTGCTACGACCCGTATTCGCACCGACAC | -3.38 ± 0.49
ACATTTGTTGATACAACCATAAAGTGATATTTACAACCATATATTGATATCTCTCACAACCATAAAGTGATATTTACTCTGATCATAGTCAGACCAACATTGCTACGACCCGTATTCGCACCGACAC | -0.115 ± 0.5
ACATTTGTTGATACAACCTTAAAATGATAATTACACCCTTAAATTGATAATTATCACACCCTTAAATTGATATTGCCTCTGATCATAGTCAGACCAACATTGCTACGACCCGTATTCGCACCGACAC | -0.505 ± 0.42

Sequence | relative integration efficiency (log2)
ACATTTGTTGATACAACCATAAAATGATAATTACACCCATAAATTGATAATTATCACAAAACTAAATTGATATTGCCTCTGATCATAGTCAGACCAACATTGCTACGACCCGTATTCGCACCGACAC | 2.45 ± 0.22
ACATTTGTTGATACAACCATAAAATGATAATTACACCCATAAATTTATTATTATCACACCCAATTTAACTATAACGCTCTGATCATAGTCAGACCAACATTGCTACGACCCGTATTCGCACCGACAC | 1.56 ± 0.26
ACATTTGTCGATACAACCATAAAATGATAATTACACCCATAAATGGATAATTATCACCCCCAATTTAACTATAACGCTCTGATCATAGTCAGACCAACATTGCTACGACCCGTATTCGCACCGACAC | 1.38 ± 0.025
ACATTTGTTGATACAACCATAAAATGATAATTACACCCATAAATTGATAATTATCACACCCATAAATTGATATTGCCTCTGATCATAGCGTACTAGTTAACTAGTTCGAGTCAGACCGCACCGACAC | -0.453 ± 0.046
ACATTTGTTGATACAACCATAAAATGATAATTACACCCATAAATTGATAATATAGACACCCATAAATTGATATTGCCTCTGATCATAGTCAGACCAACATTGCTACGACCCGTATTCGCACCGACAC | -0.0877 ± 0.52
ACATTTGTTGATACAACCATAAAATGATAATTACACCCATAAATTGATAATTATCACACCCATAAATTGATACTCTGATCATAGTCAGACCAACATTGCTACGACCCGTATTCGCACCGACACTGAC | 0.201 ± 0.14
ACATTTGTTGATACAACCATAAAGTGATATTTACAACCATAAAATGATAATTATCACAACCATAAAGTGATATTTACTCTGATCATAGTCAGACCAACATTGCTACGACCCGTATTCGCACCGACAC | 0.103 ± 0.36
ACATTTGTTGATACAACCATAAAATTATTATTACACCCATTAATTGATAATTATCACACCCAATTTAACTATAACGCTCTGATCATAGTCAGACCAACATTGCTACGACCCGTATTCGCACCGACAC | 1.15 ± 0.09
ACATTTGTTGATACAACCATCCAATGATAATTACACCCATAAATTGATAATTATCACACCCATAAATTGATATTGCCTCTGATCATAGTCAGACCAACATTGCTACGACCCGTATTCGCACCGACAC | -2.03 ± 0.58
ACATTTGTTGATACAACCATAAAATGATAATTACTCTGATCATAGTCAGACCAACATTGCTACGACCCGTATTCACCCATAAATTGATAATTATCACACCCATAAATTGATATTGCCGCACCGACAC | 0.261 ± 0.085
ACATTTGTTGATACAACCATAAAATGATAATTACACCCATAAATTGATAATTATCACACCCATAAATTGATATTGCCTCTTTATGCAGGACGACGTACGCGTTCCATATAAACCTGTGCACCGACAC | -0.104 ± 0.19
ACATTTGTTGATACAACACTAAAATGATAATTACACCCATAAATTGATAATTATCACACCCATAAATTGATATTGCCTCTGATCATAGTCAGACCAACATTGCTACGACCCGTATTCGCACCGACAC | -2.04 ± 0.74
ACATTTCTCGATACAACCATAAAATGATAATTACACCCATAAATTCATAATTATCACACCCAATTTAACTATAACGCTCTGATCATAGTCAGACCAACATTGCTACGACCCGTATTCGCACCGACAC | 0.496 ± 0.27
ACATTTGTTCATCCAACCATAAAATGATAATTACACCCATAAATTCATCATTATCACACCCAATTTAACTATAACGCTCTGATCATAGTCAGACCAACATTGCTACGACCCGTATTCGCACCGACAC | -0.745 ± 0.19
ACATTTGTTGATACAACCATAAAATGATAATTACACCCATAAATTGATAATTATCAACAACATAAATTGATATTGCCTCTGATCATAGTCAGACCAACATTGCTACGACCCGTATTCGCACCGACAC | 1.36 ± 0.2
ACATTTGTTGATACAACCATAAAATGATAATTACACCCATAAATTTCGCATTATCACACCCATAAATTGATATTGCCTCTGATCATAGTCAGACCAACATTGCTACGACCCGTATTCGCACCGACAC | -1.39 ± 0.6
